{"source": "patent US20120207760A1", "about": "(THERACLONE SCIENCES, published 2012)", "binders": {"B1": {"name": "TCN-555 (5246_L16) (antibody, V domains shown)", "VH": "QVQLVQSGAEVKRPGSSVKVSCTASGGIFRKNAISWVRQAPGQGLEWMGGIIAVFNTANYAQKFQNRVKITADESGNTAYMELSSLTSDDTAVYYCASHPKYFYGSGSYPDFWGQGTLVTVSS", "VL": "QSALTQPRSVSGSPGQSITISCTGGSSDIGASNSVSWYQQHPGKAPKLVIFDVTERPSGVPHRFSGSKSGNTASLTVSGLQPDDEADYFCCAYGGKYLVVFGGGTKVTVL"}, "B2": {"name": "TCN-560 (5084_P10) (antibody, V domains shown)", "VH": "EVQLVESGGGLVQPGGSLRLSCAASGFIFRNYWMSWVRQAPGKGLEWVANIKQDGREKYYVDSLRGRVNISRDNAENSLYLHMNSLRVEDTAVYFCARARMVVVTGDGFDVWGHGTMVTVSS", "VL": "DIQMTQSPSSLSASVGDRVTITCRASQNIKRYFNWYQQKPGKAPKLLIYAASNLENGVPSRFSGSGSGTDFTLTISSLQPEDFATYYCQQSFSKSWTFGQGTNVDIK"}, "B3": {"name": "TCN-534 (5249_B02) (antibody, V domains shown)", "VH": "QVQLVQSGAEVKKPGSSVKVSCRESGGTFNGYTITWVRQAPGQGLEWMGGIIPMMGTVNYAQKLQGRVTITTDYFTKTAYMDLNNLRSEDTAMYYCVKIRYTGQQLLWGQGTLVTVSS", "VL": "DIQMTQSPSTLSASIGDRVTITCRASQSIASWLAWYQQKPGKAPKLLIYEAVNLESGVPSRFSGSGSGTDFTLTISSLQPDDFATYFCQHYGTISQTFGGGTKVEIK"}, "B4": {"name": "TCN-536 (5095_N01) (antibody, V domains shown)", "VH": "QVQLQQWGAGLLKPSETLSLTCAVYGGSFSVSGYYWSWIRQPPGRGLEWIGEISHGGSTNYNPSLKSRVTISVDTTKNQFSLRLSSVTAADTAVYYCARGTDPDTEVYCRVGNCAAFDYWGQGSLVTVSS", "VL": "EIILAQSPGTLSLSPGERATLSCRASQFVSTRSLAWYQQRPGQAPRLLIYGASSRATGIPDRFSGSGSGTDFTLTISRLEPEDFAVYYCQHYGYSPRYAFGQGSKVEIK"}, "B5": {"name": "TCN-537 (3194_D21) (antibody, V domains shown)", "VH": "QVQLQQWGSGLLKPSETLSLTCAVYGGSFRDDYWTWIRQPPGKGLEWIGEINHSGRTNYNPSLKSRVTISVDTSLKQFSLKVISVTAADTAVYYCARGTSHVSRYFDWLPPTNWFDPWGQGTQVTVSS", "VL": "DIVLTQSPGTLSLSPGERATLSCRASQSVSSSYLAWYQQKPGQAPRLVMYGAATRATGIPDRFSGSGSGPDFTLTISRLEPEDFAMYYCQQYGNSPITFGQGTRLEIK"}, "B6": {"name": "TCN-538 (3206_O17) (antibody, V domains shown)", "VH": "QITLKESGPTLVKPTQTLTLTCVFSGFSLSITGVRVGWIRQPPGKALEWLALISWDDEKHYSPSLQSRLTITKDTSKNQVVLTMTNLDPVDTATYYCARSTDRGHVLRYFGWMLPGDAFDVWGQGTMVTVSS", "VL": "DIVMTQSPDFLPVSLGERATINCKSSQRVLYSSNNKNYLAWYQLKPGQPPKLIIYWASTRESGVPDRFSGSGSGTEFTLTISSLQAEDVAVYYCQQYYSRPYTFGQGTKLEIK"}, "B7": {"name": "TCN-540 (5060_F05) (antibody, V domains shown)", "VH": "QVQLVQSGGGVVQPGRSLRLSCAASGFTFSSYAMHWVRQAPGKGLEWVAIISYDGNDQYYTDSVKGRFTISRDSSKVYLQMHRLRPEDTAVYYCAKEFETSGYFHGSFDYWGQGILVTVSS", "VL": "QSALTQPASVSGSPGQSITISCTGTSSDVGGYNYVSWYQQHPGKAPKLLIYEVTNWPSGVSNRFSGSKSGNTASLTISGLQAEDEADYYCSSYAGSSTWVFGGGTRVTVL"}, "B8": {"name": "TCN-543 (5081_G23) (antibody, V domains shown)", "VH": "QVHLVQSGAEVRKPGDSVKVSCKTSGYTFSTYPVAWVRQVPGQGLEWMGWISTYNGNTNFAQNFQGRVTLTTDTTTNTAYMEVRSLKFDDTAVYYCARVEGSYRDFWNNQNRFDPWGQGTLVTVSS", "VL": "SYVLTQPPSVSVAPGQTARISCGGSNIGGKSVHWYQQKPGQAPVLVVYDDSGRPSGIPERFSGSNSGDTATLTISRVEAGDEADYFCQVWDNFGGVFGTGTKVTVL"}, "B9": {"name": "TCN-545 (5082_I15) (antibody, V domains shown)", "VH": "QVQLQQWGAGLLKPSETLSLSCAVFGGSFSDYYWTWIRQPPGKGLEWIGEIKHSGRTNYNPSLESRVTISVDTSKNQFSLKLSSVTAADTAIYYCARGTDPDTEGYCRSGSCSAFDFWGQGTLVTVSS", "VL": "EIVLTQSPGTLSLSPGERATLSCRASHFVNYRSLAWYQQTPGQVPRLLIYGASTRATGIPDRFSGSGSGTDFTLTISRLEPEDFAVYFCQQYGGSPRYTFGQGTRLEIK"}, "B10": {"name": "TCN-551 (5243_D01) (antibody, V domains shown)", "VH": "EVQLVQSGSEVKKPGESLKISCKGSGYSFSNYWIGWVRHMPGKGLEWMGIIYPGDSDTRYSPSFQGQVTMSADKSSSTVYLQWSSLKASDTAIYYCARRGGHSFGYGSGGDTHSEFDSWGQGTLVTVSS", "VL": "QSVLTQSPSVSAAPGQKVTISCSGSDSNIGDYFVCWYQHLPGKPPQLLIYENNKRPSGIPDRFSGSKSGTSATLGITGIQTGDEADYYCATWDGSLSAWVFGGGTKLTVL"}, "B11": {"name": "TCN-552 (5249_I23) (antibody, V domains shown)", "VH": "QVQVVQSGAEVKKPGSSVRVSCQASGGTFMNYAIIWVRRAPGQGLEWMGGIIPVFPTPNYAQMFQGRVTISTDESRSTSFLELTNLRYEDTAVYYCARRIYHGGNSGFDFWGQGTLVTVSS", "VL": "EIVLTQSPATLSLSPGERATLSCRASQSVGNYLAWYQQKPGQAPRLLIYDSSNRAPGIPARFSGSGSGTDFTLTISSLAPEDFAVYYCQQRSKWPPMYSFGHGTKLEIK"}, "B12": {"name": "TCN-553 (5261_C18) (antibody, V domains shown)", "VH": "QVQVVQSGTEVKKPGSSVKVSCQTSGGRFMSYAITWVRQAPGQGLEWMGGIVPVFGTANYAQKFQGRVTITTDDSTRTAYMELSSLRSEDTAVYYCGFRYGSGYGFDSWGQGTLVTVSS", "VL": "EIVLTQSPGTLSLSPGERATLSCRASQSVSSSYLAWYQKKPGQAPRLLIYGASTRATGIPDRFTGSGSGTDFTLSISRLEPEDFAVYYCQHFGTSVFTFGGGTKVEIK"}, "B13": {"name": "TCN-555 (5246_L16) (antibody, V domains shown)", "VH": "B1 VH", "VL": "B1 VL"}, "B14": {"name": "TCN-558 (5248_H10b) (antibody, V domains shown)", "VH": "QVQLVQSGSEVKKPGTSVKVSCTASGSVFTNYGISWVRQAPGQGLEWMGGIIPLFGAAKYAQKFQGRVTITADESTKTVYMELSRLTSKDTAIYFCAKAPRVYEYYFDQWGQGTPVTVSS", "VL": "EIVMTQFPATLSVSPGERVTLSCRASQSVSNNLAWYQQKPGQPPRLLIYDASTRATGVPAKFSGTGSGTEFTLSISSLQSEDFAVYYCQQYHNWPPSYSFGLGTKLEIK"}, "B15": {"name": "TCN-539 (5056_A08) (antibody, V domains shown)", "VH": "QVQLVESGGGVVQPGRSLRLSCAASEITFITYAMHWVRQAPGKGLEWVALISDDGSNKFYADSVKGRFTISRDNSKNTLYLQMNSLRAEDTAAYYCAREGVYFDSGTYRGYFDYWGQETLVTVSS", "VL": "EIVLTQSPATLSLSPGERATLSCRASQSVSSYLAWYQQKPGQAPRLLIYDASNRATGIPARFSGSGSGTDFTLTISSLEPEDFAVYYCQQRSHWPPITFGQGTRLEIK"}, "B16": {"name": "TCN-544 (5082_A19) (antibody, V domains shown)", "VH": "QVQLQESGPGLVKPSETLSLTCTVSRGSIGHYFWSWIRQPPGKGLEWIGYISYSGSTKYNPSLRSRVTISVDTSKNQFSLNLNSVTATDTALYYCAREDYDILTGAGPGMEVWGQGTTVTVSS", "VL": "QSMLTQPPSASGTPGQRVTISCSGSSSNIGSNTVNWFKHLPGTAPKLLIYRNDLRPSGVPDRFSGSKSGTSASLAISGLQSEDEADYYCATWDDSLNGFYVFGTGTKVTVL"}, "B17": {"name": "TCN-550 (5096_F06) (antibody, V domains shown)", "VH": "QVQLQESGPGLVKPSETLSLTCTVSGASINSHYWSWIRQPPGKGLEWIGYVYYSGSTTYNPSLKSRVTLSVDTSKNQFSLNLSSVTAADTAFYYCARHPYDVLTGSGDWFDPWGQGTLVTVSS", "VL": "SYVLTQAPSVSVAPGQTARITCGGNAIGSKKVHWYQHKAGQAPVLVVYDDTDRPSGIPERFSGSNSWSTATLTINRVEAGDEADYYCQVWDFTIDHVVFGGGTKLTVL"}, "B18": {"name": "TCN-554 (5277_M05) (antibody, V domains shown)", "VH": "QVQLVQSGADLKKPGASVKVSCKASGYTFTDYYIHWVRQAPGQGLEWMGWINPESGDTKYAQKFQGRVTMTRDTSITTAYMELGRLRSDDTAVYYCARDVSTTWSWFAPWGQGTLVTVSS", "VL": "DIVMTQSPDSLAVSLGERATINCRSSQSIFHNSNNENYLAWYQQKPGQPPKLLIYWASTRESGVPDRFSGSGSGTDFTLTISSLQAEDVAVYFCQQYYNAPLTFGGGTKVEIK"}}}
{"target": "T1, hemagglutinin (HA) of influenza A/Solomon Islands/3/06 H1N1 (Influenza A virus A/Solomon …)", "experiment": "ELISA, inactivated whole virions coated; transfection supernatant set 5", "units": {"OD450": "OD450"}}
{"binder": "B1", "OD450": 3.57}
{"binder": "B2", "OD450": 3.52}
{"target": "hemagglutinin (HA) of influenza A/Japan/305/57 H2N2 (Influenza A virus A/Japan/305/1957 …, UniProt P03451 16-562)", "experiment": "ELISA, inactivated whole virions coated; transfection supernatant set 5", "units": {"OD450": "OD450"}}
{"binder": "B1", "OD450": 2.1}
{"binder": "B2", "OD450": 3.55}
{"target": "hemagglutinin (HA) on live influenza A virus A/Solomon Islands/3/06 H1N1 (Influenza A virus A/Solomon …)", "experiment": "cell-based or functional assay", "units": {"% Neutralization": "%"}}
{"binder": "B3", "% Neutralization": 65.7}
{"binder": "B4", "% Neutralization": 81.6}
{"binder": "B5", "% Neutralization": 0}
{"binder": "B6", "% Neutralization": 21}
{"binder": "B7", "% Neutralization": 3}
{"binder": "B8", "% Neutralization": 98}
{"binder": "B9", "% Neutralization": 88}
{"binder": "B10", "% Neutralization": 99}
{"binder": "B11", "% Neutralization": 0}
{"binder": "B12", "% Neutralization": 44}
{"binder": "B13", "% Neutralization": 49}
{"binder": "B14", "% Neutralization": 84}
{"target": "hemagglutinin (HA) on live influenza A virus A/Wisconsin/67/05 H3N2 (Influenza A virus A/Wisconsin/67/2005 …)", "experiment": "cell-based or functional assay", "units": {"% Neutralization": "%"}}
{"binder": "B3", "% Neutralization": 0}
{"binder": "B4", "% Neutralization": 99.9}
{"binder": "B5", "% Neutralization": 0}
{"binder": "B6", "% Neutralization": 0}
{"binder": "B15", "% Neutralization": 99}
{"binder": "B7", "% Neutralization": 98}
{"binder": "B8", "% Neutralization": 73}
{"binder": "B16", "% Neutralization": 97}
{"binder": "B9", "% Neutralization": 99}
{"binder": "B17", "% Neutralization": 100}
{"binder": "B10", "% Neutralization": 6}
{"binder": "B11", "% Neutralization": 14}
{"binder": "B12", "% Neutralization": 5}
{"binder": "B18", "% Neutralization": 100}
{"binder": "B13", "% Neutralization": 5}
{"binder": "B14", "% Neutralization": 7}
{"target": "T1, hemagglutinin (HA) of influenza …", "experiment": "cell-based or functional assay", "units": {"% Neutralization": "%"}}
{"binder": "B1", "% Neutralization": 48}
{"binder": "B2", "% Neutralization": 94}
